Test [1] deals with Biotin-FcγRIIB (human FcγRIIB, Sino Biological) (human) (UniProt P31994). Briefly: flow cytometry, 3T3 cells displaying the antibody, biotin-FcγRIIB.
Test [2] has the same target. Kind of test: NGS after FACS sort of 3T3-displayed Library2 for biotin-FcγRIIB binding.
The target is the same in test [3]. Kind of test: NGS after FACS sort of 3T3-displayed Library4 for biotin-FcγRIIB binding.
Test [4] has the same target. Kind of test: NGS after FACS sort of 3T3-displayed LibraryMix for biotin-FcγRIIB binding.
For test [5] the target is unchanged. Briefly: flow cytometry, 3T3 cells displaying the antibody, biotin-FcγRIIB + Streptavidin-APC. For orientation: In flow cytometry, cells or beads pass a laser one at a time.
The target in test [6] is Biotin-FcγRIIB (human) (UniProt P31994). Briefly: FACS sorting of displayed Fc library on biotin-FcγRIIB, NGS.
Test [7] shares this target. Kind of test: FACS sorting of displayed Fc library on biotin-FcγRIIB, NGS; reference G236V.
Test [8] shares this target. Kind of test: FACS sorting of displayed Fc library on biotin-FcγRIIB, NGS; reference P271G.
For test [9] the target is unchanged. Briefly: NGS of 3T3 display library C2 flow-sorted for FcγRIIB binding.
The target is the same in test [10]. Kind of test: NGS of 3T3 display library Cmix flow-sorted for FcγRIIB binding.
For test [11] the target is unchanged. Briefly: NGS of 3T3 display library IgG2_C01 flow-sorted for FcγRIIB binding.
The target is the same in test [12]. Kind of test: NGS of 3T3 display library IgG2_C02 flow-sorted for FcγRIIB binding.
Test [13] has the same target. Briefly: sorting of displayed Fc library on FcγRIIB, NGS.
The target is the same in test [14]. Briefly: magnetic sorting on biotin-FcγRIIB with unlabelled activating FcγRs, NGS; Library2.
The target is the same in test [15]. Briefly: magnetic sorting on biotin-FcγRIIB with unlabelled activating FcγRs, NGS; Library4.
Test [16] shares this target. Briefly: magnetic sorting on biotin-FcγRIIB with unlabelled activating FcγRs, NGS; LibraryMix #3.
The target is the same in test [17]. Briefly: magnetic sorting on biotin-FcγRIIB with unlabelled activating FcγRs, NGS; LibraryMix #4.
The target of test [18] is T1, Biotin-FcγRIIB (human, UniProt P31994 43-217, limits assumed, biotin-labelled).
T1 construct: Bought, biotin-labelled; used at 1 µg/ml for staining and sorting; also called human FcγRIIB; CD32b
T1 sequence (looked up): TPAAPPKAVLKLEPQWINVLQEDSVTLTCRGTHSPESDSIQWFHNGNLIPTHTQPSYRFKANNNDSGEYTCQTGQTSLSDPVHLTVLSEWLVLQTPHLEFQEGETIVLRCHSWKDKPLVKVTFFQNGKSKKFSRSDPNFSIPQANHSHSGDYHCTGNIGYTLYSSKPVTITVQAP
Kind of test: FACS sorting of displayed Fc library on biotin-FcγRIIB, NGS.

In test [19] the target is T1, Biotin-FcγRIIB. Briefly: FACS sorting of displayed Fc library on biotin-FcγRIIB, NGS; reference S298R.
In test [20] the target is T1, Biotin-FcγRIIB. Briefly: FACS sorting of displayed Fc library on biotin-FcγRIIB, NGS; reference S267E.
Test [21] deals with T1, Biotin-FcγRIIB. Kind of test: FACS sorting of displayed Fc library on biotin-FcγRIIB, NGS; reference P271G.

Substitutions are numbered along the chain they refer to. Names may count otherwise.

For “human IgG2 anti-mouse CD40 surface displayed antibody (wild-type Fc)”, the proportion of the cells capable of binding to FcγRIIB in test [1] amounted to 0.23%. For the same molecule, the Enrichment factor (percentage after sorting/percentage before sorting) in [2] was determined as 0.57; in [3] it was 1.49; in test [4], 0.75. Also, the proportion of the cells binding to FcγRIIB in test [5] worked out at 0.34%.
On to “human IgG2 anti-mouse CD40 surface displayed antibody, Fc mutant P271G/G236V”, for which, in the test with Biotin-FcγRIIB (human) [6], the Enrichment factor (after/before sorting) came out at 10.3 and the Increased factor a (enrichment factor/wild-type enrichment factor) was 13.7. For the same molecule, the Increased factor 2 c Site 2 (combined/point mutation) with Biotin-FcγRIIB (human) [7] is 30.5. For the same molecule, the Increased factor 2 c Site 1 (combined/point mutation) with Biotin-FcγRIIB (human) [8] was 2.9.
For “human IgG2 anti-mouse CD40 surface displayed antibody, wild-type Fc”, in the test with Biotin-FcγRIIB (human) [9], the percentage after 1st sorting was determined as 2.51%, the percentage after 2nd sorting came to 5.25%, the percentage after 3rd sorting came out at 12.6% and the percentage before sorting was found to be 8.97%. In the test with Biotin-FcγRIIB (human) [10], this molecule yielded a percentage after 1st sorting of 1.32%, a percentage after 2nd sorting of 1.03%, a percentage after 3rd sorting of 0.4% and a percentage before sorting of 1.07%. In the test with Biotin-FcγRIIB (human) [11], this molecule yielded a percentage after 1st sorting of 61.6%, a percentage after 2nd sorting of 54.2% and a percentage before sorting of 63.8%. For the same molecule, in the test with Biotin-FcγRIIB (human) [12], the percentage after 1st sorting amounted to 58.4%, the percentage after 2nd sorting is 47.8% and the percentage before sorting stood at 56.6%.
Take “human IgG2 anti-mouse CD40 surface displayed antibody, Fc mutant G236D”: the Enrichment factor (percentage after sorting/percentage before sorting) with Biotin-FcγRIIB (human) [13] was determined as 0.84.
Consider “human IgG2 anti-mouse CD40 surface displayed antibody, P271G/G236V”, for which, in test [4], the Enrichment factor (percentage after sorting/percentage before sorting) came to 10.3 and the Increased factor (enrichment factor/wild-type enrichment factor) turned out to be 13.7.
Regarding “human IgG2 anti-mouse CD40 surface displayed antibody, Fc mutant S298A”, the Enrichment factor (percentage after sorting/percentage before sorting) with Biotin-FcγRIIB (human) [13] came out at 0.92.
As for “human IgG2 anti-mouse CD40 surface displayed antibody (wild-type IgG2 Fc)”, the Enrichment factor (percentage after sorting/percentage before sorting) with Biotin-FcγRIIB (human) [14] was 0.83; with Biotin-FcγRIIB (human) [15], 0.88; with Biotin-FcγRIIB (human) [16], 1.13; with Biotin-FcγRIIB (human) [17] it was 0.94. Also, the Percentage after sorting/unbinding percentage is 0.58 in the test with Biotin-FcγRIIB (human) [14], 0.85 with Biotin-FcγRIIB (human) [15], 1.06 with Biotin-FcγRIIB (human) [16] and 0.95 with Biotin-FcγRIIB (human) [17]. Further, the Percentage before sorting/unbinding percentage was determined as 0.7 in the test with Biotin-FcγRIIB (human) [14], 0.97 with Biotin-FcγRIIB (human) [15], 0.94 with Biotin-FcγRIIB (human) [16] and 1.01 in the test with Biotin-FcγRIIB (human) [17].

B1: human IgG2 anti-mouse CD40 surface displayed antibody, Fc mutant P271A/S298R (antibody, name in EU numbering)
light chain (with the P2A rest): DTVLTQSPALAVSPGERVTISCRASDSVSTLMHWYQQKPGQQPKLLIYLASHLESGVPARFSGSGSGTDFTLTIDPVEADDTATYYCQQSWNDPWTFGGGTKLELKRTVAAPSVFIFPPSDEQLKSGTASVVCLLNNFYPREAKVQWKVDNALQSGNSQESVTEQDSKDSTYSLSSTLTLSKADYEKHKVYACEVTHQGLSSPVTKSFNRGECGSGATNFSLLKQAGDVEENPG
heavy chain: EVQLVESDGGLVQPGRSLKLPCAASGFTFSDYYMAWVRQAPTKGLEWVASISYDGSSTYYRDSVKGRFTISRDNAKSTLYLQMDSLRSEDTATYYCGRHSSYFDYWGQGVMVTVSSASTKGPSVFPLAPCSRSTSESTAALGCLVKDYFPEPVTVSWNSGALTSGVHTFPAVLQSSGLYSLSSVVTVPSSNFGTQTYTCNVDHKPSNTKVDKTVERKCCVECPPCPAPPVAGPSVFLFPPKPKDTLMISRTPEVTCVVVDVSHEDAEVQFNWYVDGVEVHNAKTKPREEQFNRTFRVVSVLTVVHQDWLNGKEYKCKVSNKGLPAPIEKTISKTKGQPREPQVYTLPPSREEMTKNQVSLTCLVKGFYPSDIAVEWESNGQPENNYKTTPPMLDSDGSFFLYSKLTVDKSRWQQGNVFSCSVMHEALHNHYTQKSLSLSPGKLEPPPSTVSNMATVAVLVVLGAAIVTGAVVAFVMKMRRRNTGGKGGDYALAPGSQTSDLSLPDCKVMVHDPHSLA
notes: as m1; positions are Eu numbers; copies: 2 + 2
Turning to B1, in the test with Biotin-FcγRIIB [18], the “Enrichment factor (after/before sorting)” value worked out at 2.45 and the “Increased factor a (enrichment factor/wild-type enrichment factor)” value was found to be 3.27. Further, in the test with Biotin-FcγRIIB [19], the “Increased factor 2 c Site 2 (combined/point mutation)” value turned out to be 4.2.

B2: human IgG2 anti-mouse CD40 surface displayed antibody, Fc mutant S267E/S298R (antibody, name in EU numbering)
light chain (with the P2A rest): B1 light chain (with the P2A rest)
heavy chain: B1 heavy chain with S262E, A266P
notes: as for B1
In the case of B2, in the test with Biotin-FcγRIIB [18], the “Enrichment factor (after/before sorting)” value turned out to be 32.8 and the “Increased factor a (enrichment factor/wild-type enrichment factor)” value is 43.8. Besides, in the test with Biotin-FcγRIIB [20], the “Increased factor 2 c Site 1 (combined/point mutation)” value is 1.5. The “Increased factor 2 c Site 2 (combined/point mutation)” value in the test with Biotin-FcγRIIB [19] came out at 56.2.

B3: human IgG2 anti-mouse CD40 surface displayed antibody, Fc mutant P271G/S298R (antibody, name in EU numbering)
light chain (with the P2A rest): B1 light chain (with the P2A rest)
heavy chain: B1 heavy chain with A266G
notes: as for B1
For the molecule B3, in the test with Biotin-FcγRIIB [18], the “Enrichment factor (after/before sorting)” value worked out at 16 and the “Increased factor a (enrichment factor/wild-type enrichment factor)” value turned out to be 21.4. In addition, in the test with Biotin-FcγRIIB [21], the “Increased factor 2 c Site 1 (combined/point mutation)” value came to 4.5. For the same molecule, in the test with Biotin-FcγRIIB [19], the “Increased factor 2 c Site 2 (combined/point mutation)” value is 27.4.

Values taken from US20230220042A1 (SHANGHAI JIAO TONG UNIVERSITY SCHOOL OF MEDICINE, published 2023).
